Data taken from the supplement of paper PMC10065799, “High-throughput profiling of sequence recognition by tyrosine kinases and SH2 domains using bacterial peptide display” (eLife, 2023).

Assays:
[1] = biological target: c-Src SH2; experiment: SH2 binding enrichment of the phosphorylated peptide, bacterial display (enrichment ratio); higher = better substrate or ligand; peptides without Tyr show the background
[2] = biological target: SHP2-C SH2; experiment: as above
[3] = biological target: Grb2 SH2 (UniProt P62993); experiment: as above
[4] = test system: AncSZ; experiment: phosphorylation enrichment, bacterial display (enrichment ratio); higher = better substrate or ligand; peptides without Tyr show the background
[5] = biological target: Hck (UniProt P08631); experiment: as above
[6] = test system: c-Abl (mouse); experiment: as above
[7] = biological target: FGFR3 (UniProt P22607); experiment: as above
[8] = biological target: Jak2 (UniProt O60674); experiment: as above
[9] = biological target: Fyn (UniProt P06241); experiment: as above
[10] = test system: c-Src; experiment: as above
[11] = biological target: EPHB2 (UniProt P29323); experiment: as above
[12] = test system: Fer (mouse); experiment: as above
[13] = biological target: Fes (UniProt P07332); experiment: as above
[14] = biological target: MERTK (UniProt Q12866); experiment: as above
[15] = biological target: FGFR1 (UniProt P11362); experiment: as above
[16] = biological target: EPHB1 (UniProt P54762); experiment: as above
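Throughout, for SH2 binding enrichment of the phosphorylated peptide, bacterial display: peptide library displayed on the E. coli surface as eCPX fusions, selected cells deep-sequenced, score is each peptide's frequency after selection divided by its frequency in the input.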
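Throughout, for phosphorylation enrichment, bacterial display: 11-residue human phosphosite peptides and single-mutation variants displayed on the E. coli surface, counted by deep sequencing, each peptide's frequency after selection divided by its frequency in the unselected input library; frequency after pTyr selection over input frequency; kinase dosed for 20-30% of maximal phosphorylation in three min.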

Fes, sequence (P07332 whole entry, looked up): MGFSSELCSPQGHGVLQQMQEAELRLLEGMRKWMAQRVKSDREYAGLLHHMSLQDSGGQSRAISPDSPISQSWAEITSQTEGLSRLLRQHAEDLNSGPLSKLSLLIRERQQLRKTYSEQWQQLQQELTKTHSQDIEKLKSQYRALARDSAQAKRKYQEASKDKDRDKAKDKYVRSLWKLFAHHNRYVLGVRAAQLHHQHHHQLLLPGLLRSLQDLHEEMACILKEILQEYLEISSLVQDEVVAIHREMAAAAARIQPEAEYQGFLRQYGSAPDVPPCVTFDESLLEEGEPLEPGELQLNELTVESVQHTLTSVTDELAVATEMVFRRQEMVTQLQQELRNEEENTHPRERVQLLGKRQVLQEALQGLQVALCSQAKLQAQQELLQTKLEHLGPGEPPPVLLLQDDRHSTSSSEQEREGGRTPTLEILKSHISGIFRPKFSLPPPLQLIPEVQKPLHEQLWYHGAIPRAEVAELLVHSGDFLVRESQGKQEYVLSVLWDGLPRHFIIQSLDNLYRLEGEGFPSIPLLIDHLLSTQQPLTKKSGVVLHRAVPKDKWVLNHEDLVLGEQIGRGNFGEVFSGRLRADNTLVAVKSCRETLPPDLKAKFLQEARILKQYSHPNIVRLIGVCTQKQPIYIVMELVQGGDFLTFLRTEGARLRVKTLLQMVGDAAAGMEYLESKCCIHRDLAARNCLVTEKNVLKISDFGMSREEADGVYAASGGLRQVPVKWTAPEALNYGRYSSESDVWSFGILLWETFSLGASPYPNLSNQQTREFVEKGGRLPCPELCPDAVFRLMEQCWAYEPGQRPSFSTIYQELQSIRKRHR
Fyn, sequence (P06241 whole entry, looked up): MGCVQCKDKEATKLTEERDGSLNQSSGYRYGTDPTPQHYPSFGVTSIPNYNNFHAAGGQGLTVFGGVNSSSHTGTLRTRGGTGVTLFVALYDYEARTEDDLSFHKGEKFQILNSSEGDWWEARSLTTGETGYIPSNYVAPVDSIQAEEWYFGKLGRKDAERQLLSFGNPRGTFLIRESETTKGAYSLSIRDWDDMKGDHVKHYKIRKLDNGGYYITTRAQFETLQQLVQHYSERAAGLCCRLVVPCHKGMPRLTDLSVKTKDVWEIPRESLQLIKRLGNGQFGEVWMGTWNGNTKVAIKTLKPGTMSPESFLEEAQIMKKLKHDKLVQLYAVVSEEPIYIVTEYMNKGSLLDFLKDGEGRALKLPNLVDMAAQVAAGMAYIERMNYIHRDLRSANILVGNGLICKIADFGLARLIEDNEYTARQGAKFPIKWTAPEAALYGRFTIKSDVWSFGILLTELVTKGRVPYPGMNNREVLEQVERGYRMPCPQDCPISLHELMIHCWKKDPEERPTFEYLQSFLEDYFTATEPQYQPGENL
Jak2, sequence (O60674 whole entry, looked up): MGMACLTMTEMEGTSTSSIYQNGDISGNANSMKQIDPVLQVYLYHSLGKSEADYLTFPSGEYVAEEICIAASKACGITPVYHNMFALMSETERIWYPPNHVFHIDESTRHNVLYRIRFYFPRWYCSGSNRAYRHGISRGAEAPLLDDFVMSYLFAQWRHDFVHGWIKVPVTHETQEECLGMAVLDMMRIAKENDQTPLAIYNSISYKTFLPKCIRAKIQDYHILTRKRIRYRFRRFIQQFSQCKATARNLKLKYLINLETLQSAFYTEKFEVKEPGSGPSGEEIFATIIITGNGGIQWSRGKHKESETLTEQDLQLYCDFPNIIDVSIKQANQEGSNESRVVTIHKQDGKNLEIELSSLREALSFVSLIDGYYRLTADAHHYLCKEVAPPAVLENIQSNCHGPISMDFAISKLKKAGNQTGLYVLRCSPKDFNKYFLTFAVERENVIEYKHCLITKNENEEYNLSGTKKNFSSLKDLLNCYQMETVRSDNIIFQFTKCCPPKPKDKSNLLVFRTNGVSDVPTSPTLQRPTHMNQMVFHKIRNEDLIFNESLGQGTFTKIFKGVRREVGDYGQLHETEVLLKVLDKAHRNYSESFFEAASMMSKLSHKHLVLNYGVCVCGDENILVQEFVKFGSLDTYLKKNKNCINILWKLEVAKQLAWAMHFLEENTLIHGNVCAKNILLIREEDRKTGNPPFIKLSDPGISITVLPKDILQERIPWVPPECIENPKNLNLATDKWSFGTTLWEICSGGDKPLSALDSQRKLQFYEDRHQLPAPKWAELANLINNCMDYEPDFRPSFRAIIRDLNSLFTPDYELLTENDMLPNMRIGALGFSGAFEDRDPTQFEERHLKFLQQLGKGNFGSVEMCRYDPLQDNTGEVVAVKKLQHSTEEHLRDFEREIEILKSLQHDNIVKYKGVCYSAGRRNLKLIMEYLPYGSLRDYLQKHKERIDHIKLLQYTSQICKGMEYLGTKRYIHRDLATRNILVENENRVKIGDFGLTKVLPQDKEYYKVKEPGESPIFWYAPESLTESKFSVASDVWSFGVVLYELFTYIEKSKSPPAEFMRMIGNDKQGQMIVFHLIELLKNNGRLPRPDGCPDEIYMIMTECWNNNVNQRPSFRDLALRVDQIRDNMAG
Hck, sequence (P08631 whole entry, looked up): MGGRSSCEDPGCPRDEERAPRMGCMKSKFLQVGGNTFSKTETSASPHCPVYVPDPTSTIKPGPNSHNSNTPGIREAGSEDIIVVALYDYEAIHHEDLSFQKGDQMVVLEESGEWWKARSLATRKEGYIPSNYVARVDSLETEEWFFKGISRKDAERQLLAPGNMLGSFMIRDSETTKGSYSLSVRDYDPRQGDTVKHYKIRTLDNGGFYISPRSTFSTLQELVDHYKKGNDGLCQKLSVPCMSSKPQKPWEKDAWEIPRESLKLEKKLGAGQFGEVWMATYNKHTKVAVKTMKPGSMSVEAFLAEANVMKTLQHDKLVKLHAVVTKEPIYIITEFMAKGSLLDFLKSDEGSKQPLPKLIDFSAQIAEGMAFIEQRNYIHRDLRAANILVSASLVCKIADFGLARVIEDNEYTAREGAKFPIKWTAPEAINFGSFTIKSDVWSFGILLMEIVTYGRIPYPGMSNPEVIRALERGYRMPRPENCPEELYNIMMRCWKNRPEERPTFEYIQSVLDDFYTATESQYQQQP
EPHB1, sequence (P54762 whole entry, looked up, the tested form may be a part): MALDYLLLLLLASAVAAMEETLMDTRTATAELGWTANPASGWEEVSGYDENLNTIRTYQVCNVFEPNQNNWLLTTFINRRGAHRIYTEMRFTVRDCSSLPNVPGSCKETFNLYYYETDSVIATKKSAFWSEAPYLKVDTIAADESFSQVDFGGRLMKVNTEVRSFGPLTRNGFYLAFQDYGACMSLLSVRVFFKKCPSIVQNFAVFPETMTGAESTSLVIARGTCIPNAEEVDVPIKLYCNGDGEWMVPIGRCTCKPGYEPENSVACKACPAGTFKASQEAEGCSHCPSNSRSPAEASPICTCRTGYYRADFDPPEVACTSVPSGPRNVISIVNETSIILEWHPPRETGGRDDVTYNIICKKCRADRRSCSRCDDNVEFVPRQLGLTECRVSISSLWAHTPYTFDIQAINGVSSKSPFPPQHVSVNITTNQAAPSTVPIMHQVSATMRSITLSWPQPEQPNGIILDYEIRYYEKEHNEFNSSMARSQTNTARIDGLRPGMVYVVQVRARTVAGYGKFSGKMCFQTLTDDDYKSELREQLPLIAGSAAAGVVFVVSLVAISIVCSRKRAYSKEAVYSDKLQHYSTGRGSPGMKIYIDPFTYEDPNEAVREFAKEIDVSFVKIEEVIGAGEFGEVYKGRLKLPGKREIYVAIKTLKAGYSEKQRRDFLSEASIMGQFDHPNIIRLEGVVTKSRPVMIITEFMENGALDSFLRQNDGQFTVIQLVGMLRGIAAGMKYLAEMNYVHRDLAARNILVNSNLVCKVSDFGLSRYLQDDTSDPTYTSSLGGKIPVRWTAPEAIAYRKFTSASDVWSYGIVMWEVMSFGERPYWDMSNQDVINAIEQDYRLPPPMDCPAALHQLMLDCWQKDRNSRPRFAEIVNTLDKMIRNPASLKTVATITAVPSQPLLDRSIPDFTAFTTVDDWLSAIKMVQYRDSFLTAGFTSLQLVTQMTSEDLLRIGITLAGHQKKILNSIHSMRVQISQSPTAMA
FGFR3, sequence (P22607 whole entry, looked up): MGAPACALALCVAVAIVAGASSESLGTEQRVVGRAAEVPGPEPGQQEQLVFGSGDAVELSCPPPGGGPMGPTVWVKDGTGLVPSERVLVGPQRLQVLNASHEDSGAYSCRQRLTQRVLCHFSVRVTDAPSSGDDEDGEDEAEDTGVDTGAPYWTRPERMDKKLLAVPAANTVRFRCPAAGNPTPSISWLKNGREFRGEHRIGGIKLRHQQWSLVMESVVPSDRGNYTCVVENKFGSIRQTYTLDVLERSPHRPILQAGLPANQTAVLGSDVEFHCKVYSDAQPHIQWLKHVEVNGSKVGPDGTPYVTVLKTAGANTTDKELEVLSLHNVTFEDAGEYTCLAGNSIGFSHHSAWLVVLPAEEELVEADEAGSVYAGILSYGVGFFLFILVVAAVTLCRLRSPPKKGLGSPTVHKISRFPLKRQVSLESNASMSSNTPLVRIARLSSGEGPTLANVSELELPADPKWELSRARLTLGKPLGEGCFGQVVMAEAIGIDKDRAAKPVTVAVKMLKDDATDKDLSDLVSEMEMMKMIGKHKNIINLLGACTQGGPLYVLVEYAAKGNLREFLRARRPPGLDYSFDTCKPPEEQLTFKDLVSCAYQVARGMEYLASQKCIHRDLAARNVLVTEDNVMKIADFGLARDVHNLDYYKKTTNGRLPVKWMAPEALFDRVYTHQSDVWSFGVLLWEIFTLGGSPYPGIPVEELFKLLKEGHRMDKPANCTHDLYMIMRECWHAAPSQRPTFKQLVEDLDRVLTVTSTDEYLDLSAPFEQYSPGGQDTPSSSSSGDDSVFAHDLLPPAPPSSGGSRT

SH2 binding enrichment [1] | SH2 binding enrichment [2] | SH2 binding enrichment [3] | Sequence | phosphorylation enrichment [4] | phosphorylation enrichment [5] | phosphorylation enrichment [6] | phosphorylation enrichment [7] | phosphorylation enrichment [8] | phosphorylation enrichment [9] | phosphorylation enrichment [10] | phosphorylation enrichment [11] | phosphorylation enrichment [12] | phosphorylation enrichment [13] | phosphorylation enrichment [14] | phosphorylation enrichment [15] | phosphorylation enrichment [16]
0.283 | 0.534 | 0.529 | QMQLKYSQSDL [SMC1A_Y714_R711Q] | 0.973 | 0.655 | 0.885 | 0.735 | 0.569 | 0.654 | 0.457 | 0.494 | 0.621 | 1.32 | 0.69 | 0.829 | 0.68
0.49 | 0.526 | 0.921 | QMQNPYSSHSS [MUC13_Y501_R503S] | 0.625 | 0.449 | 0.446 | 0.611 | 0.467 | 1.15 | 0.818 | 0.718 | 1.26 | 0.659 | 0.432 | 0.636 | 0.546
0.599 | 0.867 | 1.04 | QNTGNYFDLFG [PTPN11_Y62_D61N_YF] | 1.6 | 0.49 | 1.28 | 15.3 | 4.13 | 0.541 | 0.71 | 22.6 | 0.925 | 1.44 | 10.8 | 21.2 | 27.6
0.661 | 0.688 | 0.731 | QNTGVYFDLFG [PTPN11_Y62_D61V_YF] | 2 | 3.34 | 0.912 | 11.6 | 1.95 | 3.82 | 2.02 | 1.33 | 0.831 | 1.52 | 3.19 | 12.8 | 2.93
0.744 | 0.535 | 1 | QQTYTYDSGIH [JUP_Y22] | 1.45 | 1.61 | 0.841 | 1.38 | 1.2 | 1.65 | 1.41 | 1.5 | 0.454 | 1.35 | 3.33 | 1.12 | 1.09
0.9 | 1.17 | 1.15 | QRIFQYIQSRF [DYRK1B_Y273_YF] | 1.09 | 0.572 | 0.583 | 0.619 | 1.58 | 0.502 | 0.557 | 0.356 | 0.693 | 1.45 | 0.728 | 0.416 | 0.707
0.413 | 0.651 | 0.794 | QTLTDYDIRFF [CSNK2A1_Y131_YF] | 1.16 | 0.691 | 0.737 | 0.888 | 0.998 | 0.709 | 0.481 | 0.677 | 0.604 | 1.48 | 0.531 | 0.569 | 0.626
0.436 | 0.705 | 0.891 | QYQEKYKQMEQ [HCN4_Y531_V534M] | 0.99 | 0.431 | 0.584 | 0.827 | 0.684 | 0.547 | 0.374 | 0.507 | 0.632 | 1.23 | 0.287 | 0.618 | 0.61
0.693 | 0.713 | 1.2 | QYRFIYMAVQH [PTPN11_Y515] | 1.32 | 2.21 | 0.973 | 1.48 | 1.21 | 1.82 | 1.93 | 0.947 | 1.29 | 1.22 | 0.729 | 0.667 | 1.52
1.67 | 1.7 | 1.98 | RCKNHYAAFSV [C1QTNF1_Y145_S143N] | 0.538 | 0.615 | 0.72 | 0.56 | 0.63 | 0.415 | 0.633 | 0.562 | 0.488 | 0.749 | 0.572 | 0.488 | 0.286

The next lines start with the sequence.

Sequence | SH2 binding enrichment [1] | SH2 binding enrichment [2] | SH2 binding enrichment [3] | phosphorylation enrichment [4] | phosphorylation enrichment [5] | phosphorylation enrichment [6] | phosphorylation enrichment [7] | phosphorylation enrichment [8] | phosphorylation enrichment [9] | phosphorylation enrichment [10] | phosphorylation enrichment [11] | phosphorylation enrichment [12] | phosphorylation enrichment [13] | phosphorylation enrichment [14] | phosphorylation enrichment [15] | phosphorylation enrichment [16]
QKMADYSNKLF [PDPR_Y104_YF] | 0.385 | 0.945 | 1.03 | 1.16 | 0.554 | 1.26 | 0.586 | 1.41 | 0.683 | 0.81 | 0.647 | 0.362 | 1.41 | 0.788 | 0.741 | 0.662
QLPRGYISILV [BAG3_Y205_P209L] | 0.6 | 0.682 | 1.04 | 1.11 | 0.675 | 0.806 | 0.748 | 1.07 | 0.563 | 0.479 | 0.848 | 0.663 | 1.38 | 0.611 | 0.589 | 0.583
QMVRMYASSYM [AVPR2_Y124_G122R] | 0.455 | 0.64 | 0.899 | 1.31 | 0.621 | 0.675 | 0.988 | 0.764 | 0.557 | 0.464 | 0.787 | 0.717 | 1.28 | 0.659 | 0.622 | 0.842
QNTGYYYDLYG [PTPN11_Y62_D61Y] | 6.14 | 2.18 | 1.54 | 1.9 | 9.49 | 1.25 | 17.8 | 8.69 | 7.01 | 7.11 | 17.9 | 4.32 | 1.96 | 15.6 | 21.1 | 18.4
RAADYYSQQMA [GBP6_Y334] | 0.545 | 0.63 | 1.01 | 0.537 | 0.456 | 0.576 | 0.875 | 0.672 | 0.371 | 0.435 | 0.339 | 0.416 | 0.619 | 0.39 | 1.38 | 0.917
RAMPVYKKAEH [TP63_Y231] | 0.351 | 0.459 | 1.29 | 0.462 | 0.27 | 0.301 | 0.238 | 0.306 | 0.337 | 0.288 | 0.26 | 0.28 | 0.379 | 0.292 | 0.304 | 0.197
REDVFYTSKLW [AKR1C2_Y81_I79V] | 0.511 | 0.729 | 0.807 | 1.52 | 0.802 | 1.25 | 1.05 | 1.41 | 0.89 | 0.662 | 0.631 | 0.422 | 1.45 | 1.3 | 0.742 | 0.759
